This passage reports fold increase of affinity against ADT1-4 and fold decrease of affinity against ADT1-4-2 results from patent CN117999282A.

Positions count from the first letter of the chain named. Numbers in names are those of the source.

Assay [1] deals with cynomolgus Vδ1 antigen DV1/GV77, recombinant heterodimer (食蟹猴 (cynomolgus)). The assay is described as follows: SPR (Reichert 4SPR), antibody on protein A chip.
Assay [2] concerns the target L1 (DV1-GV4), soluble human Vδ1Vγ4 γδTCR heterodimer, leucine zipper (LZ) format (human). The assay is described as follows: SPR (Reichert 4SPR), antibody on protein A chip.

Chain of cynomolgus Vδ1 antigen DV1/GV77, recombinant heterodimer (食蟹猴 (cynomolgus)) (main, as listed by the source): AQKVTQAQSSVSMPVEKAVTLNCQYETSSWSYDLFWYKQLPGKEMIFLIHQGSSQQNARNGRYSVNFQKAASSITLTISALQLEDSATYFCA
Chain of L1 (DV1-GV4), soluble human Vδ1Vγ4 γδTCR heterodimer, leucine zipper (LZ) format (human) (main, as listed by the source): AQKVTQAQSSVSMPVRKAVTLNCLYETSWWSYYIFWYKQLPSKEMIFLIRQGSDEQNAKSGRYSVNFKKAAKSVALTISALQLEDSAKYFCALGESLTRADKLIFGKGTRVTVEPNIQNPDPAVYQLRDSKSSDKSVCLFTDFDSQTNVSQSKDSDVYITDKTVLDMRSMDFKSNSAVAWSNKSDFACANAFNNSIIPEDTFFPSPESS

B1: ADT1-4(S74L) (antibody, V domains shown)
VH: QVQLQQSGPGLVKPSQTLSLTCAISGDSVSSKSAAWNWIRQSPSRGLEWLGRTYYRSKWSTDYAASVKSRITINPDTSKNQLSLQLNSVTPEDTAVYYCARTWSGYVDVWGQGTLVTVSS
VL: DIQMTQSPPALSASVGDRVTITCRASQDINDWLAWYQHKPGKAPKLLIYDASSLESGVPLRFSGSGSGTEFTLTISSLQPDDFATYYCQQSYSTPQVTFGQGTRLEIKR
As to B1, the fold increase of affinity against ADT1-4 in assay [1] came to 5 fold.

B2: ADT1-4-2(L74S) (antibody, part only; not given: mutant kappa chain, V domains shown, part only)
VH: B1 VH with Q1E, S104V, V109R
B2: the fold decrease of affinity against ADT1-4-2 in assay [2] was 11 fold; in assay [1], 23 fold.
